B1: recombinant mature wild-type fructose-1,6-bisphosphatase 1 (cFBP1) of Arabidopsis (enzyme, Arabidopsis thaliana, UniProt P25851 60-417, looked up)
chain: AVAADAAETKTAARKKSGYELQTLTGWLLRQEMKGEIDAELTIVMSSISLACKQIASLVQRAGISNLTGVQGAVNIQGEDQKKLDVISNEVFSNCLRSSGRTGIIASEEEDVPVAVEESYSGNYVVVFDPLDGSSNIDAAVSTGSIFGIYSPNDECIVDDSDDISALGSEEQRCIVNVCQPGNNLLAAGYCMYSSSVIFVLTLGKGVFSFTLDPMYGEFVLTQENIEIPKAGRIYSFNEGNYQMWDDKLKKYIDDLKDPGPTGKPYSARYIGSLVGDFHRTLLYGGIYGYPRDAKSKNGKLRLLYECAPMSFIVEQAGGKGSDGHSRVLDIQPTEIHQRVPLYIGSTEEVEKLEKYLA
notes: Fructose-1,6-bisphosphatase 1, chloroplastic (cFBP1), Arabidopsis thaliana, gene At3g54050; ca. 40 kDa on SDS-PAGE; numbers count on: the mature protein; The number of chains depends on pH: tetramer at pH 7.0, dimer at pH 8.3, mainly dimer at pH 7.8 when fresh; Expressed from pDEST17, which to my knowledge adds an N-terminal His6; No step to cleave the tag is described; also called WT cFBP1; WT
B2: recombinant mature C95S variant of fructose-1,6-bisphosphatase 1 (cFBP1) of Arabidopsis (enzyme, Arabidopsis thaliana, UniProt P25851 60-417, looked up)
chain: AVAADAAETKTAARKKSGYELQTLTGWLLRQEMKGEIDAELTIVMSSISLACKQIASLVQRAGISNLTGVQGAVNIQGEDQKKLDVISNEVFSNSLRSSGRTGIIASEEEDVPVAVEESYSGNYVVVFDPLDGSSNIDAAVSTGSIFGIYSPNDECIVDDSDDISALGSEEQRCIVNVCQPGNNLLAAGYCMYSSSVIFVLTLGKGVFSFTLDPMYGEFVLTQENIEIPKAGRIYSFNEGNYQMWDDKLKKYIDDLKDPGPTGKPYSARYIGSLVGDFHRTLLYGGIYGYPRDAKSKNGKLRLLYECAPMSFIVEQAGGKGSDGHSRVLDIQPTEIHQRVPLYIGSTEEVEKLEKYLA
notes: Fructose-1,6-bisphosphatase 1, chloroplastic (cFBP1), Arabidopsis thaliana, gene At3g54050; Cys95 replaced by Ser; numbers count on: the mature protein; The number of chains depends on pH: tetramer at pH 7.0, dimer at pH 8.3, mainly tetramer at pH 7.8; Expressed from pDEST17, which to my knowledge adds an N-terminal His6; No step to cleave the tag is described; also called C95S cFBP1; cFBP1 C95S

What was measured:
[1] = target: the molecule itself; assay: SEC; Superdex 200 HR 10/30, 50 mM Tris pH 8.3/0.15 M NaCl, 0.3 mL/min; native mass against protein standards
[2] = target: the molecule itself; assay: SEC; Superdex 200 HR 10/30, 50 mM Tris pH 7.0/0.15 M NaCl, 0.3 mL/min; native mass against protein standards

Row | Protein | stoichiometry N [1] | stoichiometry N [2]
1 | B1 | 2 | 4
2 | B2 | 2 | 4
